# Experimental data taken from patent US20220332804A1 (CSL INNOVATION, published 2022).
# Residue numbers refer to the chain shown, from its start.
# T1: human C2 A709S (human, UniProt P06681 21-752)
# T1 sequence: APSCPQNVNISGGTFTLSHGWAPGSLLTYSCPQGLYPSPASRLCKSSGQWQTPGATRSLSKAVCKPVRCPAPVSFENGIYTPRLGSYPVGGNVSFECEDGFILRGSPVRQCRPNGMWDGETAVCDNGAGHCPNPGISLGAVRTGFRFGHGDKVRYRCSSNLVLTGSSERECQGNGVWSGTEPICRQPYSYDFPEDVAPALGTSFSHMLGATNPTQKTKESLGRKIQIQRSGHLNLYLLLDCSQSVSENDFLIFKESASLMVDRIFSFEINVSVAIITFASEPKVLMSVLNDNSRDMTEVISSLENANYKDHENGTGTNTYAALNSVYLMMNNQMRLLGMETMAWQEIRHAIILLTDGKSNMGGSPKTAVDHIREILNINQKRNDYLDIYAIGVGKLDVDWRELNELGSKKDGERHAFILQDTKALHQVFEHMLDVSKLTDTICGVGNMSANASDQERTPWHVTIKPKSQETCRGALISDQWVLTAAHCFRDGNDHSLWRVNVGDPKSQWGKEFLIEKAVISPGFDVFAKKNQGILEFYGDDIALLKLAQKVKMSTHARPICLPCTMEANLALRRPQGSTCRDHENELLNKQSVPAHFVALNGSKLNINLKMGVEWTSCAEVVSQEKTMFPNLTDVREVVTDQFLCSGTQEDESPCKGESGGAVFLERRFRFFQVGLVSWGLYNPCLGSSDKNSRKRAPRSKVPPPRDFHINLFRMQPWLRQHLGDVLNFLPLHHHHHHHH
# T2: human C2 R719A (human, UniProt P06681 21-752)
# T2 sequence: T1 sequence with S689A, R699A
# T3: human C2 M316A (human, UniProt P06681 21-752)
# T3 sequence: T1 sequence with M296A, S689A
# T4: human C2 W420A (human, UniProt P06681 21-752)
# T4 sequence: T1 sequence with W400A, S689A
# B1: RF16-226 (antibody, human IgG4 S228P, lambda)
# heavy: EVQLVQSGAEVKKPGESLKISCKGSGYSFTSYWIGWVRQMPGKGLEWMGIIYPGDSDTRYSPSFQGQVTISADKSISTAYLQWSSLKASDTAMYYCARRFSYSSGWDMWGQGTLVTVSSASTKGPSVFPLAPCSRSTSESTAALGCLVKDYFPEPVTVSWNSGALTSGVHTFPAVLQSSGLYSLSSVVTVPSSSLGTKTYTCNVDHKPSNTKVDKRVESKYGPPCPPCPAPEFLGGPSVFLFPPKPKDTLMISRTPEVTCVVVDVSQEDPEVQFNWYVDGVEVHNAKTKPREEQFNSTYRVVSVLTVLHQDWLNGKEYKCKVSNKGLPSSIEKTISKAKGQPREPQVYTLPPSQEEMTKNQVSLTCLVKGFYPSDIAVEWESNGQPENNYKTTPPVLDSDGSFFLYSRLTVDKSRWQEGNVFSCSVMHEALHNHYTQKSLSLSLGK
# light: SYELTQPPSVSVSPGQTARITCSGDALTSKYVAWYQQKSGLAPLLVIYEDTRRPSGIPAKFSGSSSGSVATLTISGAHGDDEADYYCYSTDASGHQRVFGGGTKLTVLSQPKAAPSVTLFPPSSEELQANKATLVCLISDFYPGAVTVAWKADGSPVKAGVETTKPSKQSNNKYAASSYLSLTPEQWKSHRSYSCQVTHEGSTVEKTVAPTECS
# notes: pH-dependent anti-C2 antibody from a phage display library; also called WT
# Columns and labels:
# Assay in all cases: SPR, KD relative to WT C2;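 note: biacore SPR at 37 °C, anti-C2 mAbs captured via immobilised goat anti-human IgG, C2 alanine or serine surface mutants as analytes, 1:1 model fitted, double-referenced sensograms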
# human C2 A709S = biological target: T1, human C2 A709S
# human C2 R719A = biological target: T2, human C2 R719A
# human C2 M316A = biological target: T3, human C2 M316A
# human C2 W420A = biological target: T4, human C2 W420A
binder,measurement,setting,value
B1,Fold diff,human C2 A709S,13 fold
same,Fold diff,human C2 R719A,1 fold
same,Fold diff,human C2 M316A,1 fold
same,Fold diff,human C2 W420A,2 fold
